We go through one molecule from patent publication CN116370651A (SHANGHAI YUANZHI BIO TECH CO LTD, dated 2023).

This experiment has as its target T1, 重组PSMA蛋白 (human, UniProt Q04609 44-750).
T1 construct: also called 人PSMA蛋白; 人PSMA重组蛋白
As to the kind of experiment: SPR (Biacore); recombinant PSMA immobilised on CM5 chip, J591 as analyte at 0.125-4.0 μg/mL. Background: Surface plasmon resonance follows binding to a sensor surface in real time, without labels.

T1 sequence (Q04609 44-750 limits assumed): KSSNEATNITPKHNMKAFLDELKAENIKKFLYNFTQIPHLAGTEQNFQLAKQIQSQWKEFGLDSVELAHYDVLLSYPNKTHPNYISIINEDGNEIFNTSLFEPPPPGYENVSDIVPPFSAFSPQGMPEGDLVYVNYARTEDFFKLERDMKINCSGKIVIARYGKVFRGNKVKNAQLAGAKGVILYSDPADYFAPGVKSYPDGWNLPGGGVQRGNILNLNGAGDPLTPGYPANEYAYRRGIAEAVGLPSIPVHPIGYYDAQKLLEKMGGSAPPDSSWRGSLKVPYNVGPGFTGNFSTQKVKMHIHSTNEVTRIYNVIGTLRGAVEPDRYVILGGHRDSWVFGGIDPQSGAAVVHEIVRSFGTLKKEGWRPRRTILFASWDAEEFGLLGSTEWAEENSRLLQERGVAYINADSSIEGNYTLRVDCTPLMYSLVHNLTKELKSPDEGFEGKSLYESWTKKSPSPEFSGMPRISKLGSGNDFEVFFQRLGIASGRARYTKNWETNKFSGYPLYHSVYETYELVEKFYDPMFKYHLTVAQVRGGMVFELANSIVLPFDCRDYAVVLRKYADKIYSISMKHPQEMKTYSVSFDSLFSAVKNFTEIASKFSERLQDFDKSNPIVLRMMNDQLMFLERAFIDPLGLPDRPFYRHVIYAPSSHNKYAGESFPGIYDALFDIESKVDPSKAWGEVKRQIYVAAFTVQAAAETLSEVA

B1: 人源化单抗J591 (antibody, V domains shown)
VH: EVQLQQSGPELKKPGTSVRISCKTSGYTFTEYTIHWVKQSHGKSLEWIGNINPNNGGTTYNQKFEDKATLTVDKSSSTAYMELRSLTSEDSAVYYCAAGWNFDYWGQGTTLTVSS
VL: DIVMTQSHKFMSTSVGDRVSIICKASQDVGTAVDWYQQKPGQSPKLLIYWASTRHTGVPDRFTGSGSGTDFTLTITNVQSEDLADYFCQQYNSYPLTFGAGTMLDLK
notes: Expressed from pcDNA3.0 in suspension host cells and purified on Protein A; also called 人源化抗体J591; J591单抗
As to B1, the dissociation constant (Kd) was found to be 1.61 nM.

One may read the Kd as the constant that tells how readily two partners part at equilibrium.
